Data: paper PMC9581978, “The iron-sulfur cluster is essential for DNA binding by human DNA polymerase ε”

Legend:
[1] = target: hPolεCD (insect), catalytic domain of DNA polymerase ε p261, iron-poor (7.3% iron) (human, UniProt Q07864 28-1194); experiment: BLI; 100 mM NaCl; active enzyme concentration; kon 162 mM-1 s-1, koff 34.2e-3 s-1; EMSA: 20 mM Tris-Hepes pH 7.8, 100 mM NaCl, 2% glycerol, 2 mM TCEP, 0.2 mg/mL BSA, 0.5 uM DNA, 5 min room temperature; BLI: 30 mM Tris-Hepes pH 7.8, 100 or 150; details: protein: recombinant; tags: cleavable N-terminal His-Tev, digested during purification; label: 5'-biotin-TEG on template (strand 1); template 5' overhang 9 nt, 3' overhang 3 nt; primer annealed at 2-fold excess
Sequence of hPolεCD (insect), catalytic domain of DNA polymerase ε p261, iron-poor (7.3% iron) (Q07864 28-1194): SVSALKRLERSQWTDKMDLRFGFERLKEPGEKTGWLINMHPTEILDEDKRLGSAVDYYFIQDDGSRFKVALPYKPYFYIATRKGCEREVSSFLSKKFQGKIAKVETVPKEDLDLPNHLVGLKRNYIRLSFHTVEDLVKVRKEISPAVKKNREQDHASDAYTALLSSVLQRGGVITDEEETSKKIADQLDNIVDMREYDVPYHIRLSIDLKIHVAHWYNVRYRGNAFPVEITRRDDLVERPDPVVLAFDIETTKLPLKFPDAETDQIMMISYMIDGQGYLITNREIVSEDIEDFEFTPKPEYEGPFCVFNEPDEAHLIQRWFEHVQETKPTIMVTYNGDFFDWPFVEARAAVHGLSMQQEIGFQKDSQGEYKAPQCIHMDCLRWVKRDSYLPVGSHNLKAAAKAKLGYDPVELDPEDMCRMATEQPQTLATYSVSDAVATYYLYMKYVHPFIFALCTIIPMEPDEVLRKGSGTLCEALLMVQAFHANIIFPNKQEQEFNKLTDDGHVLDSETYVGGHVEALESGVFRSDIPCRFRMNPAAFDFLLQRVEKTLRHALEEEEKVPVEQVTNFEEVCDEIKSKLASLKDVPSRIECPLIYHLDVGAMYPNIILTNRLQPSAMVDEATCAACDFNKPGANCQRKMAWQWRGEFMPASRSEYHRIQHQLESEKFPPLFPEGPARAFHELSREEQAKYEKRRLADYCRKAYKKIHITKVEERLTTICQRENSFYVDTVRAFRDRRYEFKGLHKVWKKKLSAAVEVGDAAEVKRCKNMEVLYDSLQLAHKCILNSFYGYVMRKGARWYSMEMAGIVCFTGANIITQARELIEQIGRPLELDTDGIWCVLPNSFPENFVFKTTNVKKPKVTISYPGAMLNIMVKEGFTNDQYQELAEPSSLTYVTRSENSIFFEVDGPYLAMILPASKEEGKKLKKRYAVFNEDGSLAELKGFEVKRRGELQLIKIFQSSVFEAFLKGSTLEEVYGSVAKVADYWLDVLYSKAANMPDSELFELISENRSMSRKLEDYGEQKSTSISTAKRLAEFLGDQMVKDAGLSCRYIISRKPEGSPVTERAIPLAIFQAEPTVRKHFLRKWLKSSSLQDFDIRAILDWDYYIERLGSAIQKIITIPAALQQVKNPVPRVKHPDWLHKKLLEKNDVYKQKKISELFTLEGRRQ

[2] = target: hPolεCD (E. coli), catalytic domain of DNA polymerase ε p261, CysX [4Fe-4S] cluster (63% iron) (human, UniProt Q07864 28-1194); experiment: BLI; 100 mM NaCl; active enzyme concentration; kon 252 mM-1 s-1, koff 41.9e-3 s-1; EMSA: 20 mM Tris-Hepes pH 7.8, 100 mM NaCl, 2% glycerol, 2 mM TCEP, 0.2 mg/mL BSA, 0.5 uM DNA, 5 min room temperature; BLI: 30 mM Tris-Hepes pH 7.8, 100 or 150; details: protein: recombinant; tags: N-terminal His-Sumo, His-tag digested during purification; label: 5'-biotin-TEG on template (strand 1); template 5' overhang 9 nt, 3' overhang 3 nt; primer annealed at 2-fold excess
Sequence of hPolεCD (E. coli), catalytic domain of DNA polymerase ε p261, CysX [4Fe-4S] cluster (63% iron) (Q07864 28-1194): as above

[3] = target: hPolεCDM (C654S/C663S), [4Fe-4S]-deficient (human, UniProt Q07864 28-1194, C654S;C663S); experiment: EMSA; no mobility effect at 4-fold molar excess over DNA; EMSA: 20 mM Tris-Hepes pH 7.8, 100 mM NaCl, 2% glycerol, 2 mM TCEP, 0.2 mg/mL BSA, 0.5 uM DNA, 5 min room temperature; BLI: 30 mM Tris-Hepes pH 7.8, 100 or 150; details: protein: recombinant; tags: N-terminal His-Sumo, His-tag digested during purification; label: 5'-Cy3; single strand
Sequence of hPolεCDM (C654S/C663S), [4Fe-4S]-deficient (Q07864 28-1194 C654S/C663S): as the sequence (Q07864 28-1194) above, with C627S, C636S counted along it

B1: Octet 23-mer template / 11-mer 3'-ddC primer (dsDNA)
DNA 1: AATACATAAGCGCTCCAGGCAAT
DNA 2: GCCTGGAGCGC
modifications: 3'-dideoxycytidine on primer (strand 2)
With B1 the Kd [1] was 213 ± 43 nM and the Kd [2] was 167 ± 24 nM.

GGACTCCGAGCTGCC (ssDNA) [15-mer Cy3 primer alone]: no binding [3].
